Assay results taken from the nanobody polyreactivity screen of Harvey et al. (2022).

Experiment: yeast display, Sf9 membrane polyspecificity reagent, FACS + sequencing; frameworks hold sequencing errors
How it was run: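 A nanobody's polyreactivity label depends on the gate it was sorted from. Yeast display cells were stained with 10% biotinylated, detergent-solubilized Sf9 membrane reagent for 1 hour at 4 °C, enriched on streptavidin microbeads and sorted by FACS. The low and high (top ~1%) gates were set on anti-HA fluorescence for expression and streptavidin fluorescence for reagent binding.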

Sequence: QVQLVESGGGLVQAGGSLRLSCAASGRTFVANDMAWYTHAPGKERELFAAISYSGGSTYYADSVKGRFTISRDNAKNTVYLQMNSLKPEDTEVYYCNAYYYGGVRKQHGYWGQVTQVTVSS
- polyreactivity (PSR sort gate): low polyreactivity

Sequence: QLQLVESGGGLVQAGGSLRLSCAASGSTFRYNAMGWYRQAPGKEREFVAAITSGGGSTYYADSVKGRFTISRDNAKNTVYLQMNSLKPEDTAVYYCAKYTSSRRNTWYYYWGQGTQVTVSS
- polyreactivity (PSR sort gate): high polyreactivity

Sequence: QVQLVESGGGLVQAGGSLRLSCAACGSTFNGYTMGWYRQAPGKERELVAAISKSGGRTYYADSVKGRFTISRDNAKNTVYLQMNSLKPEDTAVYYCNKLTQSSYGWGQGTQVTVSS
- polyreactivity (PSR sort gate): high polyreactivity

Sequence: QVQLVESGGGLDQAGGSLRLSCAASGSTFVYNVMGWYRQAPGKERELVAAITSGVRTYYADSEKGRFTISRDNAKNTGYLQMNSLKPEDTAVYYCATGWRNAKYYYWGQGTQVNVSS
- polyreactivity (PSR sort gate): high polyreactivity

Sequence: QVQLVESGGGLVQAGGSLRLSCAASGNIFSDYTMGWYRQAPGKERELVAAISGDGGTTYYADSVKGRFTISRDNAKNTVYLQMNSLKPEDTAVYYCAADGYYDAYDQFFIVYYEYDYWGQGTQVTVSS
- polyreactivity (PSR sort gate): low polyreactivity

Sequence: QDQLVESRGGLVQAGGSLRLSCAASGSTFGKNTMGWYRQAPGKERELVAAISRGVSTYYADSVKGRFTISRDNAKNTVYLQMNSLKPEDTAVYYCAAQEAYRWYGFDYWGQGTQVTVSS
- polyreactivity (PSR sort gate): high polyreactivity

Sequence: HVQLVESGGGLVQAGGSLRLRCAASGFTIRSYVMGWYRQAPGKERELVAAIRRSGGSTYYADSVKGRFTISRDNAKNTVYLQMNSLKPEDTAVYYCNTVSGYGQPRGDYWGQGTQVTVSS
- polyreactivity (PSR sort gate): high polyreactivity

Sequence: QVQLVESGGGLVQAGGSLRLSSAASGSTFRTYTMGWYRQAPGKERELVASITSGGRTYYADSVKGRFTISRDNAKNTVYLQMNSMKPEDTAVYYCAADVCKLYDYWGQGTQVTVSS
- polyreactivity (PSR sort gate): low polyreactivity

Sequence: QVQLVESGGGLVQAGGSLRLSCAASGFIFRPYTMGWYRQAPGKERELVAAITYSGGSSTYYADSVKGRFTISRDNAKNTVYLQMNSLKPEDTAVSYCATTPDYGHDYWGQGTQVTVSS
- polyreactivity (PSR sort gate): low polyreactivity

Sequence: QVQLVESGGGLVQAGGSLRLSCAASGRTFGYYAMGWYRQAPGTERELVASISSRGGSSYYADSVKGRFTISRDNAKNTVYLQMNSLKPEDTAVYYCNAPSWSGSRTYYYWGQGTQVTVSS
- polyreactivity (PSR sort gate): high polyreactivity

Sequence: QVQLVESGGGLVQAGGSLRLSCAASGNTFYVYTMGWYRQAPGKERELVAAISSTGDRTYYADSVKGRFTISRDYAKNTVYLQMNSLKPEETAVYYCAARLYRGYRGYYYWGQGTQVTVSS
- polyreactivity (PSR sort gate): high polyreactivity

Sequence: QDQLVESGGGLVQAGGSLRLSCAASGSIFHGYGRGWYRQAPGKERELVASITWIGGDTYYADSVKGRFTISRDNPKNTVYLQMNSLKPEDTAVYYCNAEWVVTYIYDYWGQGTQVTVSS
- polyreactivity (PSR sort gate): low polyreactivity

Sequence: QVQLVDSGVGLVQAGGSLRLSCAASGRIFSVYAMGRYRHAPGKERELVASISSGGSTNYADSVKGRFTISRDNAKNTVYLQMNSLKPEDTAVYYCAADYWYRLFWYYGAPLDYWGLGTQVTVSS
- polyreactivity (PSR sort gate): low polyreactivity

Sequence: QVQLVESGGGLVQAGGSLRLSCAASGSIFDVYTMGWYRQAPGKERELVAAINTGGGSTYYADSVKGRFTISRDNAKNTVYLQMNSLKPEETAVYYCAASVYHYGPLYYWGQGTQVTVSS
- polyreactivity (PSR sort gate): low polyreactivity

Sequence: QVQLVESGGGLVQAGGSLRLSCAASGRIFDYNVMGWYRQAPGKERELVADINGSGGGTNYADSVKGRFTISRDNAKNTVYLQINTLKPEDTAVYYCNADSYEYHVPYYDYRYDYCGQGTQVTVSS
- polyreactivity (PSR sort gate): low polyreactivity

Sequence: QVQLVESGGGLVQAGGRLRLSCAASGSTFGAYAMGWYRQAPGKERELVAAIRGSGAGTYYADSVKGRFTISRDNAKNTVYLQMNSLKPEDTAVYYCNTANLRSLGWTFRRYSYEYWGQGTQVTVSS
- polyreactivity (PSR sort gate): high polyreactivity

Sequence: QVQLVESGGGLVQAGGSLRLSCAASGFTFGGYAMGWYRQAPGKERELVAAISSGGSTYYADSVKGRFTISRDNAKNTVYLQMNSLKPEDTAVYYCATDLRRYSYRGGHYYWGQGTQVTVSS
- polyreactivity (PSR sort gate): high polyreactivity

Sequence: QVQLVESGGCLVQAGGSLRLSCAASGFTFPGNAMGWYRQAPGKERELVAAMSASGGKTYYADSVKGRFTISRDNAKNTVYLQMNSLKPEDTAVYYCAAVVAFATGTYYYWGQGTQVTVSS
- polyreactivity (PSR sort gate): high polyreactivity

Sequence: QVQLVESGGGLVQAGGSLRLSCAASGFIFWYNAMGWYRQAPGKERELVASISGSGGSTYYADSVKGRFTISRDNAKNTVYLQMNSLKPEDTAVYYCAVYFFSFWGQGTQVTVSS
- polyreactivity (PSR sort gate): low polyreactivity

Sequence: QVQLVESGGGLVQAGGSLRLSCAASGSIFPYYAMGWYRQAPGQEREFVASISSVTSTYADSVKGRFTISRDNAKNTVYLQMNSQKPEDPAVYYCAADRAYSWYSVSRYNYWGQGTQVTVSS
- polyreactivity (PSR sort gate): low polyreactivity

Sequence: QVQLVESGGGFVQAGGSLRLSCAASGSIFVTYAKGWYRQAPGKERDLVAAIKYSGGSTYYADSVKGRFTISRDYAKNTVYLQMNSLKPEDTAVYYCAADERVDQGWIRMDYWGQGTQVTVSS
- polyreactivity (PSR sort gate): low polyreactivity

Sequence: QVQLVESGGGLVQAGGSLRLSCAASGSTFYFYAMGWYRQAPGKEREFVAAITASGGSTYYADSVKGRFTISRDNAKNTVYLQMNSLKPEDTAVYYCAARFSYWKTKRAYDWGQGTQVTVSS
- polyreactivity (PSR sort gate): high polyreactivity

Sequence: QVQLHESGGGLVQARGSLRLSCAASGTSSNAGPMGWYRQAPGKEREFVAGIGVGSNTNYADSVKGRYTIIRDNAKNTVYLQMNSLKPEDTAVYYCAVGGYAPLGRPYWGQGTQVTVSS
- polyreactivity (PSR sort gate): low polyreactivity

Sequence: QVQLVESGGGLVQAGGSLRLSCAASGSTFVTNDMGWYRQAPGKESELVAAISSGTSTNYADSVKGRFTISRDNAKNTVYLQMNSLKPEDTAVYYCAADSLKRYDYWGQGTQVTVSS
- polyreactivity (PSR sort gate): low polyreactivity

Sequence: QVQLVESGGGLVQAGGSLRLSCAASGFTFHSYAMGWYRQAPGKERELVATISRSGGSTYYADSVKGRFTISRDNAKNTVYLQMNSLKPEDTAVYYCNKLLYGWSKPVGYDYYWGQGTQVTVSS
- polyreactivity (PSR sort gate): high polyreactivity

Sequence: QVQLVESGGGLVQAGGSLRLSCAASGIIFVLYDMGWYRPAPGKERELVAAIDKSGGSTYYADSVKGRFTISRDNAKNTVYLQMNSLKPEDTAVYYCNARVVWRNPSYLKSSYDYWGQGTQVTVSS
- polyreactivity (PSR sort gate): low polyreactivity

Sequence: QVQLVESGGGLVQAGGSLRLSCAATVSTFWNYAMGWYRQAPGKERELVAAITRGSSTNYADSVKGRFRISRDNAKNTVYLQMNSLKPEVTAVYYCAKRVGRWSAFYYWGQGTQVTVSS
- polyreactivity (PSR sort gate): high polyreactivity

Sequence: QVQLVESCGGIVQAGGSLRLSCAASGRIFGENAMGWYRQEPGKEREFVAVISISDASTYYADSVKGRFTISRDNAKNTVFFQMNSLKPEDTAVYYCAAEGPDSYSMDYWGQGTQVTVSS
- polyreactivity (PSR sort gate): low polyreactivity

Sequence: QVQLVESGGGLVQAGGSLRLSCAASGRIFRYYAMGWYRQAPPKERELVAAIRWSGGRTYYADSVKGRFTISRDNAKNTVYLQMNSLKPEDTAVYYCAADSPYKMDYWGQGTQVTVSS
- polyreactivity (PSR sort gate): high polyreactivity

Sequence: QVQLVESGGGLVQAGGSLRLSCAASGRIFHRYDMGWDRQAPGKEREFVAAISSRGGSTYYADSVKGRVTISRDYAKNTVYLQMNSLKPEDTAVYYCAAQNGYRSGEFYYWGQGTQVTVSP
- polyreactivity (PSR sort gate): high polyreactivity

Sequence: QVQLVESGGGLVQAGGSLRLSCAASGSTFSFYTMGWYRQAPGKERELVAAISQSGTSTYYADSVKGRFTISRDNAKNTVFLQMNSLKPEDTAVYYCATVRKFYFHTRWYYYEGGYWGQGTQVTVSS
- polyreactivity (PSR sort gate): high polyreactivity

Sequence: QVQLVESGGGLVQAGGSLRLSCAASGRIFYWYAMGWYRQAPGKERELVAAISSAGTTYYADSVKGRFTISRDNAKNTVYLQMNSLKPEDTAVYYCAATLGFYRRSEYDYWGQGTQVTVSS
- polyreactivity (PSR sort gate): high polyreactivity

Sequence: QVQLVESGGGLVQAGGSLRLSCAASGFIFDPYAMGWYRQAPGKERELVARITWSGGRTYYADSVKGRFTISRDNAKNTVYLQMNSLKPEDTAVYYCNADVYGFDYWGQGTQVTVSS
- polyreactivity (PSR sort gate): high polyreactivity

Sequence: QVQLVESGGGLVQAGGSLRLSCAASGSTFDDNAMGWYRQAPGKERELVASITYRGGSTYYADSVKGRFTISRDNAKNTVYLQMNSLKPEDTAVYYCAKGHYFKYDYWGQGTQVTVSS
- polyreactivity (PSR sort gate): low polyreactivity

Sequence: QVQLVESGGGLVQAGGSLRLSCAASGSTFTPYGMGWYRKAPGKERELVAAITVSGGRTYDADSVKGRFTISRDNAKNTVYLQMNSLKPEDTAVYYCAAVYLRGDGEYDYWGQGTQVTVSS
- polyreactivity (PSR sort gate): low polyreactivity

Sequence: QVHLVESGGGLVQAGGSLRLSCAASGRGYYALGWYRQAPGKERELVAAISRGGNTKYADSVKGRFTISRDNAKNSVYLQMNSLKPEDTAVYYCAAYAYSYELYYWGQGTQVTVSS
- polyreactivity (PSR sort gate): high polyreactivity

Sequence: QVQLVESGGGLVQAGGSLRLSCAASGSIFRSNAMGWYRQAPGKERELVAAISWRGGRTYYADSVKGRFTISRDNAKNSVYLLMNSLKPEDTAVYYCATEVEPYAYGYWGQGTQVTVSS
- polyreactivity (PSR sort gate): high polyreactivity

Sequence: QVQLVESGGGLVQAGGSLRLSCAASGRTFGGYALGWYRQAPGKERELVATISYSSGSTYYADSVKGRFTISRDNAKNTVYLQMNSLKPEETAVYYCAARIRYFYRYDYWGQGTQVTVTS
- polyreactivity (PSR sort gate): high polyreactivity

Sequence: QVQLVESGGGLVQAGGSLRLSCAASGITSHPYDMGWYRQAPGKERELVAVITSGGSTSYADSVKGRFTISRDNAKNTVYLQMNSLKPEDTAVYYCNADSWYAWYSYGYDYWGQGTQVTVSS
- polyreactivity (PSR sort gate): low polyreactivity

Sequence: QVQLVESGAGLVQAGGSLRLSCDASGLIFAGYAMGWYRQAPGTERELVAAITWRGGRTYADSVKGRFTISRDNAKNTVYLQINSLKPEDTAVYYCNKDPWYVFHPRGQFLFDYWGQGTQVTVSS
- polyreactivity (PSR sort gate): low polyreactivity

Sequence: QVQLVESGGGLVQAGGSLRLSCAASGSIFFSNTMGWYRQAPGKERELVASITGDSSTNYADSVKGRFTISRDNAKNTVYLQMNSLKPEDTAVYYCNAGRVLRYVGHYSGDLEYWGQGTQVTVSS
- polyreactivity (PSR sort gate): low polyreactivity

Sequence: QVQLVESGGGLVQAGGSLRLSCAASGIGHNAMGWYRQAPGKERELVAAISSSGGRTYYADSVKGRFTISRDNAKNTVYLQMNSLKPEDTAVYYCARRAVYGIFDYWGQGTQVTVSS
- polyreactivity (PSR sort gate): high polyreactivity

Sequence: QVQHVESGGGLVQAGRSLRLSCAASGLIYPYVMGWYRQAPGKERELVAAISRSGGRTYYADSVKGRFTISRDNAKNTVYLQMNSLKPEDTAVYYCAAKVDVTGYFDYWGQGTQVTVSS
- polyreactivity (PSR sort gate): high polyreactivity
